Source: paper PMC4120998 (Journal of the American Chemical Society, 2014)

Target: CXCR4 on human Jurkat cells (Homo sapiens (endogenous, Jurkat cells), UniProt P61073)
Test: flow cytometry on cells

CXCR4 on human Jurkat cells, sequence (P61073 whole entry): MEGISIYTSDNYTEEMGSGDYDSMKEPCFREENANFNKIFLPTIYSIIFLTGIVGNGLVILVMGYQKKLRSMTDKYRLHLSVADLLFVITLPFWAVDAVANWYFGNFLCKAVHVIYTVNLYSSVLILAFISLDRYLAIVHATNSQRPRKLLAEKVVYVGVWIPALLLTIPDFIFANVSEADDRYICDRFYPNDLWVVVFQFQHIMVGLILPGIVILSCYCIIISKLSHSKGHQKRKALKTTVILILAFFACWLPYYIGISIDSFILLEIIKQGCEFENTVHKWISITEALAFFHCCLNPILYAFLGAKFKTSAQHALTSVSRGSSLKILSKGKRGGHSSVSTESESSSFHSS

binding result: no binding (tested: 1 μg/mL)
B1: bovine antibody BLV1H12 (antibody)
VH: QVQLRESGPSLVKPSQTLSLTCTASGFSLSDKAVGWVRQAPGKALEWLGSIDTGGNTGYNPGLKSRLSITKDNSKSQVSLSVSSVTTEDSATYYCTSVHQETKKYQSCPDGYRERSDCSNRPACGTSDCCRVSVFGNCLTTLPVSYSYTYNYEWHVDVWGQGLLVTVSS
VL: QAVLNQPSSVSGSLGQRVSITCSGSSSNVGNGYVSWYQLIPGSAPRTLIYGDTSRASGVPDRFSGSRSGNTATLTISSLQAEDEADYFCASAEDSSSNAVFGSGTTLTVL
